Laboratory results taken from IntAct's records for PubMed 30679749.

Molecular target: hs12a_human HSPA12A (UniProt O43301)
UniProt O43301, sequence (O43301 whole entry): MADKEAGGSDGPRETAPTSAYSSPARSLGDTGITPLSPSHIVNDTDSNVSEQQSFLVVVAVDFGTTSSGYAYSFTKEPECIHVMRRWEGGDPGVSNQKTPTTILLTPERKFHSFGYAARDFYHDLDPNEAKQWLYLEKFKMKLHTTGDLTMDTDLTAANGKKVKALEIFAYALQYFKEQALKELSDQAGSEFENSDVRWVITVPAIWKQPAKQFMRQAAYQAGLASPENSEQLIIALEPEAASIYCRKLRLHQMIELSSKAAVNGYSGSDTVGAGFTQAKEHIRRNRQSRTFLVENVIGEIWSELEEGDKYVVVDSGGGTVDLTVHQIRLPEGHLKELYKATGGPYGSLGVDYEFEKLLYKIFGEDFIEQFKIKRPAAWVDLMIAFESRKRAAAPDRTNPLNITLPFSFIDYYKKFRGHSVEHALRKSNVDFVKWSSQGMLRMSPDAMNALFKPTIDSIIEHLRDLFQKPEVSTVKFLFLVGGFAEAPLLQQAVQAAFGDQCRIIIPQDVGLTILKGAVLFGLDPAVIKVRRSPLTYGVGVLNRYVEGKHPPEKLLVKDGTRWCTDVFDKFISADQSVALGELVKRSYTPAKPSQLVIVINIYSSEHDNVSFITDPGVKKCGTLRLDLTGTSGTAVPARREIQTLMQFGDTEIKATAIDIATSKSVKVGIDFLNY

For “Sortilin-related receptor (Homo sapiens), Q92673 D2190A;D2191A”, which “effect of a mutation on the interaction” value is on record?
Its value is “with no effect”.

“Sortilin-related receptor (Homo sapiens), Q92673 D2207A;D2208A” was tested. Which “effect of a mutation on the interaction” value did it give?
The value was “disrupting interaction strength”.

For “Sortilin-related receptor (Homo sapiens), Q92673 E2194A;D2195A;D2196A;E2197A;D2198A”, which “effect of a mutation on the interaction” value is on record?
Its value is “disrupting interaction strength”.

How did the “effect of a mutation on the interaction” value turn out when “Sortilin-related receptor (Homo sapiens), Q92673 F2205A;S2206A” was run?
The value was “with no effect”.

“Sortilin-related receptor (Homo sapiens), Q92673 T2203A;G2204A” was tested. Which “effect of a mutation on the interaction” value did it give?
Its value is “with no effect”.

For “Sortilin-related receptor (Homo sapiens), Q92673 V2209A;P2210A”, which “effect of a mutation on the interaction” value is on record?
Its value is “with no effect”.
